The text below walks through data of publication PMC3138255 (The Journal of Biological Chemistry, 2011).

Substitutions are numbered along the chain they refer to. Names may count otherwise.

One may read the Kd as the equilibrium constant for the complex coming apart. The term stoichiometry N denotes a count of units in the complex or per binding partner.

Data set [1] addresses Rnd1 GTPase as used in the quoted work (ref 39, Hota & Buck 2009) (UniProt Q92730). Briefly: Not stated in this article. The settings on record: cited from earlier work.
For data set [2], the target named is Rnd1 GTPase (residues 5-200), loaded with GMPPNP (UniProt Q92730). Briefly: ITC + SPR.
Data set [3] has as its target Rnd2 GTPase (residues 1-227), loaded with GMPPNP (UniProt P52198). Nature of the data set: ITC + SPR.
In data set [4] the target is Rnd1 GTPase, wild type, construct of this paper (UniProt Q92730). Nature of the data set: Isothermal titration calorimetry. The settings on record: pH 7.0, 25 °C, 50 mM NaCl, 4 mM MgCl2, 50 mM phosphate buffer.
The target in a further data set is T1, Rnd1 GTPase Y114F (UniProt Q92730 5-200, Y114F).
T1 sequence (looked up): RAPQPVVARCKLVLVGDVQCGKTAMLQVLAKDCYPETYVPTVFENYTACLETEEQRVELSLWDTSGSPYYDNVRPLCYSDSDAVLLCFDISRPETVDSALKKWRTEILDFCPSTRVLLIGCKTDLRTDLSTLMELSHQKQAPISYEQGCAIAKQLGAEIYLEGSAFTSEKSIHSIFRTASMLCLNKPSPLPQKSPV
Nature of the data set: ITC. For orientation: ITC needs no label: the signal is the heat of the interaction.

In data set [5] the target is T2, Rnd1 GTPase (residues 5-200), loaded with GMPPNP (UniProt Q92730 5-200).
T2 sequence (looked up): T1 sequence (looked up) with F110Y
Nature of the data set: ITC.

The target of data set [6] is T3, Rnd2 GTPase (residues 1-227), loaded with GMPPNP (UniProt P52198 1-227).
T3 sequence (looked up): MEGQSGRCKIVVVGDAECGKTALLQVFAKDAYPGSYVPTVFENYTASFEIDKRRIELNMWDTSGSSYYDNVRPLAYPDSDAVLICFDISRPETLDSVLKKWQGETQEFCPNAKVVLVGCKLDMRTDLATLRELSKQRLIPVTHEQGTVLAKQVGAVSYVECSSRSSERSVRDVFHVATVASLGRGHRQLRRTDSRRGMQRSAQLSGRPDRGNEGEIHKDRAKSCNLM
Briefly: ITC.

The data set “SEC” concerns the molecule itself. Nature of the data set: SEC. On the technique in general: SEC sorts molecules by how far they enter the pores of the column.

Chain of Rnd1 GTPase, wild type, construct of this paper (Q92730 whole entry): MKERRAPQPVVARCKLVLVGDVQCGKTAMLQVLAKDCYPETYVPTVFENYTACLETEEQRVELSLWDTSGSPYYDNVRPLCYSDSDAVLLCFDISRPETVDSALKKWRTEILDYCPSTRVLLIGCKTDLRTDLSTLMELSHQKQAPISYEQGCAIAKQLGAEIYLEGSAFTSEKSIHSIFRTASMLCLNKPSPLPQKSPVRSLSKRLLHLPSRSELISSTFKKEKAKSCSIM
Chain of Rnd1 GTPase as used in the quoted work (ref 39, Hota & Buck 2009) (Q92730 whole entry, the tested form may be a part): as the sequence (Q92730 whole entry) above

Consider “Plexin-B1 RBD as used in the quoted work (ref 39, Hota & Buck 2009)”, for which the Kd entry is given as “∼3.1 μM” in data set [1] (pH 6.4) and “∼5.5 μM” in data set [1] (pH 6.8).
Consider “plexin-C1 Rho GTPase binding domain (RBD), residues 1198-1305 (from UniProt O60486 1198-1305) (domain or fragment)”, for which the dissociation constant Kd in data set [2] and in data set [3] was above 50 µM in each case.
Take “Plexin-B1 Rho GTPase binding domain (RBD), wild type, construct of this paper”: in data set [4], the Ka was 1.8 10^5 M^-1, the Kd was determined as 5.5 µM and the ΔG was -7.1 kcal/mol.

B1: plexin-B1 Rho GTPase binding domain (RBD), residues 1746-1852 (domain or fragment, human, UniProt O43157 1746-1852, looked up)
chain: YRPLTLNALLAVGPGAGEAQGVPVKVLDCDTISQAKEKMLDQLYKGVPLTQRPDPRTLDVEWRSGVAGHLILSDEDVTSEVQGLWRRLNTLQHYKVPDGATVALVPC
Turning to B1, the figures for the Ka (in the data set with Rnd1 GTPase Y114F; in data set [5]; in data set [6]) were 180000 M⁻¹, 180000 M⁻¹ and 40000 M⁻¹, respectively. For the same molecule, the Kd in the data set with Rnd1 GTPase Y114F was 5.5 µM; in data set [5], 5.5 µM; in data set [6], above 20 µM. For the same molecule, the dH with Rnd1 GTPase Y114F is -2.5 kcal/mol; in data set [5] it was -6.7 kcal/mol; in data set [6] it was -0.2 kcal/mol.

B2: plexin-B1 RBD L1815K (domain or fragment)
chain: B1 chain with L70K
B2: in data set [6], the Ka worked out at 80000 M⁻¹; the affinity, expressed as Kd, was 20 µM; the dH is -3.2 kcal/mol.

B3: plexin-B1 RBD L1815Y (domain or fragment)
chain: B1 chain with L70Y
In data set [5], B3 yielded a Ka of 70000 M⁻¹, an equilibrium dissociation constant (Kd) of 14.1 µM and a dH of -1.4 kcal/mol. Further, in data set [6], the Ka turned out to be 90000 M⁻¹, the Kd turned out to be 9.8 µM and the dH is -1.6 kcal/mol.

B4: plexin-C1 RBD K1267L (domain or fragment)
chain: TVALNVVFEKIPENESADVCRNISVNVLDCDTIGQAKEKIFQAFLSKNGSPYGLQLNEIGLELQMGTRQLELLDIDSSSVILEDGITKLNTIGHYEISNGSTIKVFKK
In data set [5], B4 gave a Ka of 100000 M⁻¹, a Kd of 10 µM and a dH of -1.9 kcal/mol. In data set [6], this molecule registered a Ka of 90000 M⁻¹, a Kd of 11.1 µM and a dH of -0.6 kcal/mol.

B5: plexin-C1 RBD T1264V/R1265V (domain or fragment)
chain: B4 chain with T67V, R68V, L70K
For B5, in data set [5], the Ka amounted to 360000 M⁻¹, the Kd worked out at 2.6 µM and the dH was -3.4 kcal/mol. In data set [6], this molecule returned a Ka of 120000 M⁻¹, a Kd of 8.3 µM and a dH of -1.5 kcal/mol.

B6: plexin-D1 RBD Y1618L (domain or fragment)
chain: AKPRNLNVSFQGCGMDSLSVRAMDTDTLTQVKEKILEAFCKNVPYSQWPRAEDVDLEWFASSTQSLILRDLDDTSVVEDGRKKLNTLAHYKIPEGASLAMSLIDKKDNTLGRVKDLDTEKYFHLVL
In data set [5], B6 returned a Ka of 190000 M⁻¹, a Kd of 5.2 µM and a dH of -3.1 kcal/mol. Further, in data set [6], the Ka worked out at 70000 M⁻¹, the Kd came out at 14.2 µM and the dH is -1.6 kcal/mol.

B7: plexin-D1 Rho GTPase binding domain (RBD), residues 1553-1678 (domain or fragment, human, UniProt Q9Y4D7 1553-1678, looked up)
chain: B6 chain with L66Y
In data set [6], B7 displayed a Ka of 60000 M⁻¹, a Kd of 16.6 µM and a dH of -0.4 kcal/mol.

B8: plexin-D1 RBD S1614V/T1615A (domain or fragment)
chain: B6 chain with S62V, T63A, L66Y
Take B8: in data set [5], the Ka came out at 50000 M⁻¹, the Kd was 20 µM and the dH stood at 1.3 kcal/mol. In data set [6], this molecule registered a Ka of 130000 M⁻¹, a Kd of 7.7 µM and a dH of -1.4 kcal/mol.

B9: plexin-A2 Rho GTPase binding domain (RBD), residues 1490-1600 (domain or fragment, human, UniProt O75051 1490-1600, looked up)
chain: LIRQQIEYKTLILNCVNPDNENSPEIPVKVLNCDTITQVKEKILDAVYKNVPYSQRPRAVDMDLEWRQGRIARVVLQDEDITTKIEGDWKRLNTLMHYQVSDRSVVALVPK
Consider B9, for which the “stoichiometry N” value in the data set “SEC” was determined as 2. In the data set with Rnd1 GTPase Y114F, the Ka amounted to 100000 M⁻¹, the Kd was found to be 10 µM and the dH was -4.1 kcal/mol. Besides, in data set [5], the Ka was 140000 M⁻¹, the Kd is 7 µM and the dH is -8 kcal/mol. In data set [6], this molecule displayed a Ka of 90000 M⁻¹, a Kd of 10.7 µM and a dH of -1.2 kcal/mol.
